From PMC9616408

Molecular target: SD93 NA K385N/N387K mutant, recombinant NA head domain (residues 82-469) fused to a VASP tetramerization domain (not stated | influenza A virus A/Shandong/9/1993 (H3N2))
Test: SEC; HiLoad 16/100 Superdex 200 prep grade, 20 mM Tris-HCl pH 8.0, 100 mM NaCl, 10 mM CaCl2; NA head domain fused to a VASP tetramerization domain

SD93 NA K385N/N387K mutant, recombinant NA head domain (residues 82-469) fused to a VASP tetramerization domain (domain or fragment)
stoichiometry N: 4
